Key:
Test in all cases: purified protein
[1] = test system: CCCCCOC(=O)c1ccccc1C(=O)OCCCCC; settings: pH 7.5; 10.0 °C
[2] = test system: CCCCOC(=O)c1ccccc1C(=O)OCCCC
[3] = test system: CCCOC(=O)c1ccccc1C(=O)OCCC; settings: pH 7.5; 10.0 °C
[4] = 10 mM sodium phosphate pH 7.5, 10°C

DphB (uncultured bacterium)
Km [1]: 378 ± 18 µM
Vmax [1]: 45.9 µmol/min/mg
kcat/Km [1]: 118000 ± 4000 M⁻¹ s⁻¹
Km ([2]; pH 7.5, 10.0 °C): 561 ± 16 µM
Vmax ([2]; pH 7.5, 10.0 °C): 40.7 µmol/min/mg
kcat/Km ([2]; pH 7.5, 10.0 °C): 70000 ± 2000 M⁻¹ s⁻¹
Km [3]: 271 ± 12 µM
Vmax [3]: 46.4 µmol/min/mg
kcat/Km [3]: 166000 ± 5000 M⁻¹ s⁻¹

DphB (uncultured bacterium; D255A)
Km [2, 4]: 20300 ± 1170 µM
kcat [2, 4]: 6.95 ± 1.42 s⁻¹
